Measurements published in paper PMC11271488, “The AKT2/SIRT5/TFEB pathway as a potential therapeutic target in non-neovascular AMD” (Nature Communications, 2024).

Biological target: T1, Synaptotagmin Like 1 (SYTL1), on the HuProt v3.1 human proteome array (human, UniProt Q8IYJ3 1-562)
T1 construct: Synaptotagmin Like 1 (SYTL1), human; as arrayed on HuProt v3.1; source: spotted on the HuProt v3.1 human proteome array (CDI NextGen Proteomics)
T1 sequence (looked up): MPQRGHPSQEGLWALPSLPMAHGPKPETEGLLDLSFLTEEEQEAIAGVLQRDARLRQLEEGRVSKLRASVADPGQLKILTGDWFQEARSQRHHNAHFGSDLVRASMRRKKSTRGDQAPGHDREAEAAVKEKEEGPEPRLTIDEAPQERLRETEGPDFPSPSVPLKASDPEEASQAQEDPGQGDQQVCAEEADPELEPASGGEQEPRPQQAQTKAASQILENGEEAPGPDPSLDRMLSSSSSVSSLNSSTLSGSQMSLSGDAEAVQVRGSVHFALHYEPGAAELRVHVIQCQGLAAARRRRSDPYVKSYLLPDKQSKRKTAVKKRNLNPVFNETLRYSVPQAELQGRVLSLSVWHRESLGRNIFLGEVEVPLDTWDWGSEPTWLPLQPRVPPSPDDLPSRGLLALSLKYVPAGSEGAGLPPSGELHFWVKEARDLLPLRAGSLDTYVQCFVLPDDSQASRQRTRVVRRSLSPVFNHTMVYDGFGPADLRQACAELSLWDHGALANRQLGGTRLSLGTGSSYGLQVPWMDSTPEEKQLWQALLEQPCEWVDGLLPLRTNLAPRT
Assay: peptide or protein array; HuProt v3.1 human proteome array probed with recombinant AKT2 at 1 ug/mL; GenePix analysis; only interactions with a Z-score above 6 considered
Settings: both partners purified

B1: recombinant AKT2 (RAC-beta serine/threonine-protein kinase) (enzyme, human, UniProt P31751 1-481, looked up)
chain: MNEVSVIKEGWLHKRGEYIKTWRPRYFLLKSDGSFIGYKERPEAPDQTLPPLNNFSVAECQLMKTERPRPNTFVIRCLQWTTVIERTFHVDSPDEREEWMRAIQMVANSLKQRAPGEDPMDYKCGSPSDSSTTEEMEVAVSKARAKVTMNDFDYLKLLGKGTFGKVILVREKATGRYYAMKILRKEVIIAKDEVAHTVTESRVLQNTRHPFLTALKYAFQTHDRLCFVMEYANGGELFFHLSRERVFTEERARFYGAEIVSALEYLHSRDVVYRDIKLENLMLDKDGHIKITDFGLCKEGISDGATMKTFCGTPEYLAPEVLEDNDYGRAVDWWGLGVVMYEMMCGRLPFYNQDHERLFELILMEEIRFPRTLSPEAKSLLAGLLKKDPKQRLGGGPSDAKEVMEHRFFLSINWQDVVQKKLLPPFKPQVTSEVDTRYFDDEFTAQSITITPPDRYDSLGLLELDQRTHFPQFSYSASIRE
notes: AKT2, RAC-beta serine/threonine-protein kinase; recombinant protein used as the probe on the HuProt v3.1 array; source: recombinant
binding result: binds
